For assay [1], the target named is T1, maltose binding protein MalE from Escherichia coli (Escherichia coli, UniProt P0AEX9 27-396 = MBP). The experiment in a line: ΔG(wt)-ΔG(mut) from Kd by competition Biacore (reference itself). On the technique in general: Surface plasmon resonance follows binding to a sensor surface in real time, without labels.
In assay [2] the target is bt-MalE, hybrid between a peptide that can be biotinylated in vivo by E. coli and MalE (Escherichia coli).
Assay [3] concerns the target T1, maltose binding protein MalE from …. Kind of assay: competition Biacore in solution, buffer L2; buffer L2.
For assay [4] the target is unchanged. Kind of assay: competition Biacore in solution, buffer M2; buffer M2.
In a further assay the target is T2, bovine serum albumin (bovine, UniProt P02769 25-607).
T2 construct: also called BSA
Kind of assay: fluorescence titration of 0.3 µM DarpOff7(N45ANBD) by BSA, 25 °C, buffer M1.

Positions count from the first letter of the chain named. Where “and” joins values, the source holds several entries; their conditions need not be identical. Identical values can stand only once.

T2 sequence (P02769 25-607 limits assumed): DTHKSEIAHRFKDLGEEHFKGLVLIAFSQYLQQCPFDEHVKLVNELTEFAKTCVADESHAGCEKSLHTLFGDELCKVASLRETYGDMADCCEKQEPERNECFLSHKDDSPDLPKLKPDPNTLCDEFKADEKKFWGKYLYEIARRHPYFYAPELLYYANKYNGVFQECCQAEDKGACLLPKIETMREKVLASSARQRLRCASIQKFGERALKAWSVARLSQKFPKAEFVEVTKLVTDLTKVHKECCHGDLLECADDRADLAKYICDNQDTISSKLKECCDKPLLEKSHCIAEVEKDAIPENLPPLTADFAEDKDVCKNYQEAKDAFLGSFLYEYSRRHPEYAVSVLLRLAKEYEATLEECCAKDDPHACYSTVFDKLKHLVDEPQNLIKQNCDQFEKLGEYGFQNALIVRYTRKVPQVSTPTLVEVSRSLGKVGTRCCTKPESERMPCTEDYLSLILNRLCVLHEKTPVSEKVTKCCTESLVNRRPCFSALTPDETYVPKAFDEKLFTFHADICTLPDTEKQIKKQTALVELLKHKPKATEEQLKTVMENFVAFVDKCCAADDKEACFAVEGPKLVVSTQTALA

B1: DarpMbp3-16(wt) (designed binder)
chain: MRGSHHHHHHGSDLGKKLLEAAHAGQDDEVRILMANGADVNAMDNFGVTPLHLAAYWGHFEIVEVLLKYGADVNASDATGDTPLHLAAKWGYLGIVEVLLKYGADVNAQDKFGKTAFDISIDNGNEDLAEILQKLN
For the molecule B1, in assay [1], the ΔΔG was 0 kcal/mol.

B2: DarpOff7(wt) (designed binder)
chain: MRGSHHHHHHGSDLGRKLLEAARAGQDDEVRILMANGADVNAADNTGTTPLHLAAYSGHLEIVEVLLKHGADVDASDVFGYTPLHLAAYWGHLEIVEVLLKNGADVNAMDSDGMTPLHLAAKWGYLEIVEVLLKHGADVNAQDKFGKTAFDISIDNGNEDLAEILQKLN
In general, koff refers to a measure of how fast the partners let go of each other. Higher therefore signals fast dissociation. In general, kon refers to a measure of how fast the partners come together. Low readings indicate slow association, high ones fast association. One may read the Kd as the concentration at which binding is half-saturated. Read a high Kd as a looser complex. For B2, in assay [2], the koff is 0.0051 s⁻¹ and 0.0062 s⁻¹ and 0.0061 s⁻¹; the kon is 660000 M⁻¹ s⁻¹ and 250000 M⁻¹ s⁻¹ and 550000 M⁻¹ s⁻¹. Further, in assay [3], the equilibrium dissociation constant (Kd) came to 11 nM. In assay [4], this molecule returned a Kd of 5.6 nM.

B3: DarpOff7(N45ANBD) (designed binder)
chain: B2 chain with N45C
notes: also called conjugate at position Asn45; Asn45
For the molecule B3, the binding result in the assay with bovine serum albumin was “no binding (tested: 2.4 µM)”.

The values above are taken from patent US20110262964A1 (published 2011).
